In patent EP0577752B2 one finds Kd and binding sites/cell (binding sites/cell) data, which are given here for 1 substance.

This test deals with IL-8 binding sites on human neutrophils (human). The test is described as follows: competition of 125I-IL-8 by unlabelled IL-8 on human neutrophils, 2 hr at 4 degrees.

The Kd is the constant that tells how readily two partners part at equilibrium. Lower therefore signals higher affinity. “human 72 amino acid IL-8 (from UniProt P10145 21-99) (ligand)”: the Kd worked out at 1.1 nM and the binding sites/cell (binding sites/cell) turned out to be 31000.
